Laboratory results from publication PMC11252911 (Proceedings of the National Academy of Sciences of the …, 2024).
pKd: −log10 of the molar value.

What was measured:
[1] = biological target: Pwl2-2 (Magnaporthe oryzae); assay: ITC
[2] = biological target: Pwl2-3 (Magnaporthe oryzae); assay: ITC

HMA domain of OsHIPP43 (residues 26 to 101) (from UniProt Q8LJL3 26-101) (domain or fragment)
pKd [1]: 6.85 | pKd [2]: 7.46
